Measurements as given in patent US20150166988A1 (Bicycle, published 2015).
*1 amine or outer side, *2 acyl side, *3 side chain or, on linkers, in order; H or OH if unused. Bridges are numbered along the chain shown (N, C = ends). TBMB = c1c(C[*:1])cc(C[*:3])cc1C[*:2]

B1: TBMB modified peptide PK15 (bi-cyclic peptide) (peptide)
peptide: H-ACSDRFRNCPADEALCG-NH2
modifications: linker 2-9-16 via TBMB
notes: Chemically synthesized 17-mer reacted with TBMB; also called conjugate PK15; peptide conjugate PK15
B2: TBMB modified peptide PK15 hydrolysed in one binding loop by human plasma kallikrein (peptide)
peptide: H-ACSDRFRNCPADEALCG-NH2
modifications: linker 2-9-16 via TBMB; also: one peptide bond in a loop hydrolysed, position not given here
B3: TBMB modified synthetic peptide PK4 (bi-cyclic peptide) (peptide)
peptide: H-ACSTERRYCPIEIFPCG-NH2
modifications: linker 2-9-16 via TBMB
SMILES: CC[C@H](C)[C@@H]1NC(=O)[C@H](CCC(=O)O)NC(=O)[C@H]([C@@H](C)CC)NC(=O)[C@@H]2CCCN2C(=O)[C@@H]2CSCc3cc(cc(c3)CSC[C@@H](C(=O)NCC(N)=O)NC(=O)[C@@H]3CCCN3C(=O)[C@H](Cc3ccccc3)NC1=O)CSC[C@H](NC(=O)[C@H](C)N)C(=O)N[C@@H](CO)C(=O)N[C@@H]([C@@H](C)O)C(=O)N[C@@H](CCC(=O)O)C(=O)N[C@@H](CCCNC(=N)N)C(=O)N[C@@H](CCCNC(=N)N)C(=O)N[C@@H](Cc1ccc(O)cc1)C(=O)N2
B4: TBMB modified synthetic peptide PK2 (bi-cyclic peptide) (peptide)
peptide: H-ACSDRFRNCPLWSGTCG-NH2
modifications: linker 2-9-16 via TBMB
SMILES: CC(C)C[C@@H]1NC(=O)[C@@H]2CCCN2C(=O)[C@@H]2CSCc3cc(cc(c3)CSC[C@@H](C(=O)NCC(N)=O)NC(=O)[C@H]([C@@H](C)O)NC(=O)CNC(=O)[C@H](CO)NC(=O)[C@H](Cc3c[nH]c4ccccc34)NC1=O)CSC[C@H](NC(=O)[C@H](C)N)C(=O)N[C@@H](CO)C(=O)N[C@@H](CC(=O)O)C(=O)N[C@@H](CCCNC(=N)N)C(=O)N[C@@H](Cc1ccccc1)C(=O)N[C@@H](CCCNC(=N)N)C(=O)N[C@@H](CC(N)=O)C(=O)N2

Biological target: T1, human plasma kallikrein (activated with factor XIIa) (human, UniProt P03952 20-638)
T1 sequence (P03952 20-638 limits assumed): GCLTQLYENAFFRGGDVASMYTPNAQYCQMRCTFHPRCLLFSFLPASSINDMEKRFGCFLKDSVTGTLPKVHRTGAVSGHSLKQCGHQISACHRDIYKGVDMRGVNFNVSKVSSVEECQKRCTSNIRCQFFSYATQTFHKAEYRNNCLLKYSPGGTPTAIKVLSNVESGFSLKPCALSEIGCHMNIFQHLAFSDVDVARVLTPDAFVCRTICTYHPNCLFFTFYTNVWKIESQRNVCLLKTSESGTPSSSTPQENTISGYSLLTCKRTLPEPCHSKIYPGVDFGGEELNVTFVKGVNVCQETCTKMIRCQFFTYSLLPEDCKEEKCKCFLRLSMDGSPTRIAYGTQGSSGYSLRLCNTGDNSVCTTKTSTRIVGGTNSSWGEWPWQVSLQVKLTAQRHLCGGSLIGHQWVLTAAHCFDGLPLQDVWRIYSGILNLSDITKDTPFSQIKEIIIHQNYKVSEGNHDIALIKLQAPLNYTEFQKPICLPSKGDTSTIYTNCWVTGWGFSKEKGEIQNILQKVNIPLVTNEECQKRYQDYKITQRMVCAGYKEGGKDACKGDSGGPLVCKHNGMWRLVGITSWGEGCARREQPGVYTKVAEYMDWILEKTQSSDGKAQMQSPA
Assay: cell-based or functional assay

Row | Binder | IC50, residual enzyme activity [nM]
1 | B1 | 1.6
2 | B2 | 2.2

Biological target: recombinant mouse plasma kallikrein (activated with thermolysin) (mouse, UniProt P26262 20-638)
Sequence (P26262 20-638 limits assumed): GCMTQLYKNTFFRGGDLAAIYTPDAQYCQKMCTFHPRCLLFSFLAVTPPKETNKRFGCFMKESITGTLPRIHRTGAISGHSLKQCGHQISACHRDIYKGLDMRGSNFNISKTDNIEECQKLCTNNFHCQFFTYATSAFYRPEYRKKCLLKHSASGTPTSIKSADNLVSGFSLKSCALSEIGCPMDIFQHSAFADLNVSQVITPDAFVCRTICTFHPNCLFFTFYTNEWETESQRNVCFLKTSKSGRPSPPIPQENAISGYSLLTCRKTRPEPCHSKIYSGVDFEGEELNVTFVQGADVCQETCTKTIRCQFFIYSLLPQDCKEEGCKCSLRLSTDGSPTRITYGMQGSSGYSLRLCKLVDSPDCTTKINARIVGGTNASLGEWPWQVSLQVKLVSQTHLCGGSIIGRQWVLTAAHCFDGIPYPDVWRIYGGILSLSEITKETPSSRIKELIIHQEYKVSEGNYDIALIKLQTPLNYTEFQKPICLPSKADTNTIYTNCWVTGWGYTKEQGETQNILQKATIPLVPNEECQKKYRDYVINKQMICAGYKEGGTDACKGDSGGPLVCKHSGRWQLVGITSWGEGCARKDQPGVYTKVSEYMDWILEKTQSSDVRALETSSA
Assay: cell-based or functional assay

Row | Binder | inhibitory activity (residual enzyme activity) [µM]
3 | B3 | > 10
4 | B4 | > 10

Biological target: human factor XIa (human, UniProt P03951 19-625)
Assay: cell-based or functional assay

Row | Binder | inhibitory activity (residual enzyme activity) [µM]
5 | B3 | > 10
6 | B4 | > 10

Biological target: human thrombin (human, UniProt P00734 328-622)
Assay: cell-based or functional assay

Row | Binder | inhibitory activity (residual enzyme activity) [µM]
7 | B3 | > 10
8 | B4 | > 10

Biological target: T1, human plasma kallikrein (activated with …)
Assay: cell-based or functional assay
Remark: another data set of the same source

Row | Binder | IC50 (nM), residual enzyme activity [nM]
9 | B3 | 33
10 | H-ACSDRFRNCPADEALCG-NH2 (cysteine pairing not given here) [linear synthetic peptide PK15 (not TBMB modified)] | > 10000
11 | B1 | 1.7
12 | B4 | 28.6
13 | H-ACSDRFRNCPLWSGTCG-NH2 (cysteine pairing not given here) [linear synthetic peptide PK2 (not TBMB modified)] | > 10000
14 | H-ACSTERRYCPIEIFPCG-NH2 (cysteine pairing not given here) [linear synthetic peptide PK4 (not TBMB modified)] | 7180

Biological target: T1, human plasma kallikrein (activated with …)
Assay: cell-based or functional assay
Remark: another data set of the same source

Row | Binder | IC50 (nM), residual enzyme activity [nM]
15 | B3 | 33
16 | H-ACSDRFRNCPADEALCG-NH2 (cysteine pairing not given here) [linear synthetic peptide PK15 (not TBMB modified)] | > 10000
17 | B1 | 1.7
18 | B4 | 28.6
19 | H-ACSDRFRNCPLWSGTCG-NH2 (cysteine pairing not given here) [linear synthetic peptide PK2 (not TBMB modified)] | > 10000
20 | H-ACSTERRYCPIEIFPCG-NH2 (cysteine pairing not given here) [linear synthetic peptide PK4 (not TBMB modified)] | 7180

Biological target: T1, human plasma kallikrein (activated with …)
Assay: apparent Ki calculated from the enzyme inhibition IC50 (fluorogenic substrate Z-Phe-Arg-AMC) with the Cheng and Prusoff equation

Row | Binder | Ki [nM]
21 | B1 | 1.5
